Results as given in patent US9809627B2, “Cyclized transthyretin peptide and methods of use therefor” (Wisconsin Alumni Research Foundation, priority 2014, dated 2017).
Entries after “also recorded” stand apart in the source; their conditions may differ. Where no end group is shown, it is not given here. [ ]: non-standard residue; d: D form.

Key:
Aβ toxicity = conditions: cited from earlier work
Aβ (1-40) [1] = target: T1, Aβ (1-40) (Homo sapiens, UniProt P05067); experiment: Proteolytic fragmentation assay of Aβ with peptides (Proteinase K); format: binding; conditions: 3:1 molar excess of peptides, detection by 4G8
T1 construct: Aβ (1-40) was purchased from Anaspec, Inc. (Fremont, Calif.) as lyophilized powder; purchased Anaspec, Inc. (Fremont, Calif.)
Method: (§1) Aβ (1-40) was purchased from Anaspec, Inc. (Fremont, Calif.) as lyophilized powder. For dynamic light scattering, ThT fluorescence assay, TEM, NTA measurement and filtration/sedimentation assay, Aβ was dissolved in 50% ACN, re-lyophilized, and reconstituted in 8M urea at 12 mg/mL. Aβ stock was then aliquoted, snap-frozen in ethanol with dry ice, and stored at −80° C. For PICUP and proteolytic fragmentation analysis, lyophilized Aβ was dissolved in prechilled hexafluoroisopropanol (HFIP, Acros Organics, Geel, Belgium), aliquoted, dried and stored at −20° C. as previously described (Cho et al., 2014). Aβ sample was prepared right before use by dissolving dried peptides in 50 mM NaOH and diluting into phosphate-buffered saline (PBSA) (10 mM Na2HPO4/NaH2PO4, 150 mM NaCL and 0.02% NaN3 (pH 7.4)) to 30 μM as previously described (Cho et al., 2014).
The proteolytic fragmentation assay of Aβ with peptides was performed as previously described in detail (Cho et al., 2014). Briefly, Aβ alone (20 μM) or with peptide (60 μM) was incubated for 24 hr at 37° C. Proteinase K (Promega, Madison, Wis.) was added to the samples at a final concentration of 0.5 μg/mL and samples were dotted onto a 0.45 μm nitrocellulose membrane (Pierce) after incubation for 0, 5, 10, 20, 30, 40, 50, 60, 90 and 120 min. Membranes were then reacted with monoclonal antibodies against Aβ (6E10, Covance, against Aβ (3-8) and 4G8 against Aβ (18-22)) and visualized.

[2] = Peptide self-aggregation by light scattering; format: physicochemical; conditions: 80 μM, 37° C., after 1 hr of incubation
Method: To further probe for self-aggregation, G16, LG3, and CG3 were incubated at 80 μM at 37° C. and analyzed by light scattering.

Aβ (1-40) [3] = target: T1, Aβ (1-40); experiment: Transmission electron microscopy of Aβ aggregates; format: biochemical; conditions: 48 h at 37° C., 28 μM Aβ, 2.8 μM peptide
Method: as §1
Aβ alone (28 μM) or with peptides (G16 or CG3 at 2.8 μM) were prepared in PBSA and incubated for 48 hr at 37° C. A drop of sample was placed on a pioloform-coated grid and stained with methylamine tungstate stain. Images were taken with a Philips CM120 scanning transmission electron microscope (FEI Corp., Eindhoven, The Netherlands).

Aβ (1-40) [4] = target: T1, Aβ (1-40); experiment: Filtration/sedimentation assay of Aβ aggregation; format: biochemical
Method: as §1
Aβ alone (30 μM) or with CG3 (3 μM) was prepared in PBSA and incubated for 24 hr at 37° C. For filtration, 175 μL of sample was filtered through 0.45 μm filter. For sedimentation, 100 μL of sample was transferred onto a separate tube and centrifuged for 30 min at 19,500 ref. The supernatant (80%) was removed. Concentrations of untreated, filtered, and centrifuged samples were measured by BCA assay (Pierce).

[5] = tested on: primary cortical neuronal cells; experiment: In vitro cellular toxicity of Aβ (1-42), MTS assay; format: cell-based, mice; conditions: for protection against Aβ toxicity: 10 μM Aβ
Method: Aβ toxicity was assessed as described in detail previously (Yang et al., 2013; Cho et al., 2014). Briefly, the primary cortical neuronal cells were cultured from embryonic 15.5 day mice and were maintained in neurobasal media till they are matured. Aβ (1-42) (American Peptide, Sunnyvale, Calif.) at 1 mg/mL in PBS was diluted to 10 μM without or with peptides as previously described (Cho et al., 2014). At 6 days in vitro (DIV), the cells were treated with either Aβ alone or Aβ incubated with different doses of mTTR and peptides. Appropriate vehicle and controls were run along with the treatments. At 8 DIV, the neurons were incubated with MTS reagent (Promega) as per manufacturer protocol for 2-3 hrs and absorbance was measured at 490 nm.

Aβ (1-40) [6] = target: T1, Aβ (1-40); experiment: Photoinduced cross-linking (PICUP) of Aβ and peptides; format: binding; conditions: for interaction with Aβ (shift in cross-linked Aβ size distribution): pre-aggregated Aβ, 10:1 molar excess of Aβ, Western blot 4G8
Method: as §1
Aβ prepared with HFIP/NaOH treatment at 30 μM as described was mixed with peptides to a final concentration of 24 μM Aβ and 2.4 μM peptides. Aβ stock was used immediately (freshly prepared) or after incubation for 24 hr at 37° C. (1 day pre-aggregated). Samples of Aβ with and without peptides were incubated for 1 hr at 37° C. and cross-linked by photo-induced cross-linking method as previously described (Cho et al., 2014). Cross-linked samples were then separated on a 10-20% Tris-Tricine gradient gel (Iinvotrogen, Carlsbad, Calif.), transferred onto a 0.2 μm poly(vinylidene difluoride) (PVDF) membrane and detected by monoclonal mouse anti-Aβ antibody 4G8 (Covance, Princeton, N.J.) as previously described (Cho et al., 2014).

Aβ (1-40) [7] = target: T1, Aβ (1-40); experiment: Thioflavin T (ThT) fluorescence assay of Aβ aggregation; format: biochemical; conditions: 28 μM Aβ; for ThT fluorescence intensity of Aβ with peptide: 2.8 μM peptide; for inhibition of ThT fluorescence increase: up to 48 h, 2.8 μM peptide or mTTR
Method: as §1
ThT stock solutions were prepared in PBSA and filtered through 0.22 μm filter. The concentration of ThT was measured using an extinction coefficient of 26,620 M^−1 cm^−1 at 416 nm and the stock solution was diluted to 10 μM in PBSA prior to the measurement. Aβ alone (28 μM) and with peptides (2.8 μM) or mTTR (2.8 μM) were prepared in PBSA and incubated for 48 hr at 37° C. After 1, 5, 24 and 48 hr of incubation, 10 μL of each sample was mixed with 130 μL of 10 μM ThT and analyzed. ThT fluorescence emission was measured using a QuantaMaster spectrofluometer (PTI, Birmingham, N.J.), with excitation at 440 nm and emission spectra recorded from 460 to 500 nm. Three serial spectra were averaged for each sample and the background signal of ThT in PBSA was subtracted from the averaged data. Fluorescence intensity at a wavelength of 480 nm was compared.

Aβ (1-40) [8] = target: T1, Aβ (1-40); experiment: Dynamic light scattering of Aβ aggregate growth; format: biochemical; conditions: 140 μM Aβ
Method: as §1
Aβ stock in 8M urea prepared as stated above was thawed and sonicated for 2 min before being diluted into PBSA. Aβ alone (140 μM) or mixed with peptides (14 μM) was filtered through […] filter directly into a light scattering cuvette and placed into a bath of the index-matching solvent decahydronaphthalene with temperature controlled to 37° C. Light scattering data were collected using a Brookhaven BI-200SM system (Brookhaven Instruments Corp., Holtsville, N.Y.) and an Innova 90C-5 argon laser (Coherent, Santa Clara, Calif.) operating at 488 nm and 150 mW. The average scattering intensity at 90° was measured over 10 hr and data were normalized to the total mass concentration. The z-averaged hydrodynamic diameter was determined from the autocorrelation function using the method of cummulants.

[9] = Peptide self-association by PICUP cross-linking and gel electrophoresis; format: physicochemical; conditions: PICUP cross-linking, gel electrophoresis
Method: Peptides were also cross-linked by PICUP and analyzed for self-association. Twenty microliters of peptides at 36 μM in PBSA was incubated for 1 hr at 37° C. and cross-linked. Cross-linked samples were then heated at 95° C. for 5 min and separated on a 10-20% Tris-Tricine gradient gel. Peptides were visualized by silver staining (SilverStain Kit, Pierce, Rockford, Ill.).

| Substance | effect on Aβ degradation by protease (Aβ (1-40) [1]) | light scattering of peptide alone [2] | interaction with Aβ (shift in cross-linked Aβ size distribution) (Aβ (1-40) [6]) | effect on Aβ aggregation (hydrodynamic diameter, total scattered intensity) (Aβ (1-40) [8]; 14 μM peptide) | protection against Aβ toxicity ([5]; 10 μM peptide) | inhibition of ThT fluorescence increase (Aβ (1-40) [7]) | self-association by PICUP [9] | inhibition of Aβ toxicity (summary) [5] | further results |
| --- | --- | --- | --- | --- | --- | --- | --- | --- | --- |
| PRRYTIAALLSPYSWS [G16, 16-mer linear peptide, TTR residues 102-117, Y116W, reference compound] | Aβ degradation was delayed; also recorded: most effective in inhibiting degradation | scattered light above background | interact with Aβ | increased the size of aggregates of Aβ |  |  |  |  | fold less effective than full-length TTR at protecting cells from Aβ toxicity (Aβ toxicity): about 25 fold; morphology of Aβ aggregates by TEM (Aβ (1-40) [3]): still a large number of fibrils; effect on fraction of Aβ aggregates removable by filtration or sedimentation (Aβ (1-40) [4]): reduce the fraction of Aβ aggregates that can be removed by filtration or sedimentation; protection against Aβ toxicity ([5]; highest dose tested): small but significant protection; interaction with freshly prepared versus pre-aggregated Aβ (Aβ (1-40) [6]; freshly prepared or 1 day pre-aggregated Aβ): showed no such selectivity; ThT fluorescence intensity of Aβ with peptide (Aβ (1-40) [7]; after 5 hr): remained low; ThT fluorescence intensity of Aβ with peptide (Aβ (1-40) [7]; after 24 hr): ThT-positive species were detected; intensity of scattered light of Aβ-peptide mixture (Aβ (1-40) [8]; 14 μM peptide): enhanced the intensity of scattered light similarly; mean hydrodynamic size of Aβ-peptide mixture (Aβ (1-40) [8]; after 5 hr, 10:1 molar excess of Aβ, 37° C.): about 120 nm |
| PRRYTIAALLSPYSWSDYKDDDDK [GF, linear peptide G16 with a C-terminal FLAG tag] | Aβ degradation was delayed |  | interact with Aβ | little to no effect on Aβ aggregation | no protective effect | unable to inhibit the ThT fluorescence increase | some lower-molecular-weight multimers but none of the larger multimers |  | protection against Aβ toxicity ([5]; highest dose (40 μM)): modest protection |
| SKVVTPPRYTIAKLLSPYSYSQ (not fully specified; also: cyclic (type not given here)) [SEQ ID NO: 17] |  |  |  |  |  |  | significantly less self-association than SEQ ID NO: 1 |  |  |
| SKVVT^DPPRYTIAALLSPYSYSQ [LG3] (SKVVT[dP]PRYTIAALLSPYSYSQ) [non-cyclized 22-mer, TTR residues 104-123 grafted onto DPro-Pro template] | Aβ degradation was delayed | did not scatter light above background | interact with Aβ; also recorded: weaker compared to CG3 | little to no effect on Aβ aggregation | no protective effect | unable to inhibit the ThT fluorescence increase |  |  |  |
| SKV^DPPTIAALLSPYSYSQ [CG2] (cyclo(SKV[dP]PTIAALLSPYSYSQ)) [cyclic 18-mer of TTR residues 106-121 grafted onto DPro-Pro template] | did not have any effect on the time course of degradation |  | do not show signs of interaction with Aβ | did not affect Aβ aggregation; also recorded: nor did they affect Aβ aggregation | no protective effect |  |  | nor did they affect Aβ aggregation or inhibit Aβ toxicity |  |
| SKV^DPPTIAALLSPYSYSQ [LG2] (SKV[dP]PTIAALLSPYSYSQ) [non-cyclized 18-mer, TTR residues 106-121 grafted onto DPro-Pro template] |  |  | do not show signs of interaction with Aβ | nor did they affect Aβ aggregation |  |  | oligomer distribution was shifted towards lower molecular weight | nor did they affect Aβ aggregation or inhibit Aβ toxicity |  |
